B1: His-NTV-AviTag (domain or fragment, E. coli, UniProt P0ADN0 1-319, looked up)
chain: MLTLDTLNVMLAVSEEGLIEEMIIALLASPQLAVFFEKFPRLKAAITDDVPRWREALRSRLKDARVPPELTEEVMCYQQSQLLSTPQFIVQLPQILDLLHRLNSPWAEQARQLVDANSTITSALHTLFLQRWRLSLIVQATTLNQQLLEEEREQLLSEVQERMTLSGQLEPILADNNTAAGRLWDMSAGQLKRGDYQLIVKYGEFLNEQPELKRLAEQLGRSREAKSIPRNDAQMETFRTMVREPATVPEQVDGLQQSDDILRLLPPELATLGITELEYEFYRRLVEKQLLTYRLHGESWREKVIERPVVHKDYDEQPR
modifications: biotinylated for the BLI binding studies (50 μM D-biotin added to the LB medium during expression)
notes: ViaA, E. coli, N-terminal domain (NTV), residues 1-319; also called N-Terminal domain of ViaA; source: E. coli, expressed and purified as the ViaA constructs (NiNTA IMAC, desalting, SEC)
B2: His-ViaA-AviTag (natural protein, E. coli, UniProt P0ADN0 1-483, looked up)
chain: MLTLDTLNVMLAVSEEGLIEEMIIALLASPQLAVFFEKFPRLKAAITDDVPRWREALRSRLKDARVPPELTEEVMCYQQSQLLSTPQFIVQLPQILDLLHRLNSPWAEQARQLVDANSTITSALHTLFLQRWRLSLIVQATTLNQQLLEEEREQLLSEVQERMTLSGQLEPILADNNTAAGRLWDMSAGQLKRGDYQLIVKYGEFLNEQPELKRLAEQLGRSREAKSIPRNDAQMETFRTMVREPATVPEQVDGLQQSDDILRLLPPELATLGITELEYEFYRRLVEKQLLTYRLHGESWREKVIERPVVHKDYDEQPRGPFIVCVDTSGSMGGFNEQCAKAFCLALMRIALAENRRCYIMLFSTEIVRYELSGPQGIEQAIRFLSQQFRGGTDLASCFRAIMERLQSREWFDADAVVISDFIAQRLPDDVTSKVKELQRVHQHRFHAVAMSAHGKPGIMRIFDHIWRFDTGMRSRLLRRWRR
modifications: biotinylated for the BLI binding studies (50 μM D-biotin added to the LB medium during expression)
notes: ViaA, E. coli, residues 1-483, cloned in the p11-Toronto1 vector; also called C-terminally AviTagged ViaA; source: E. coli BL21 (DE3), purified (NiNTA IMAC, desalting, SEC); not shown: His6, N-terminal, kept
B3: AviTag-ViaA-His (natural protein, E. coli, UniProt P0ADN0 1-483, looked up)
chain: B2 chain
modifications: biotinylated for the BLI binding studies (50 μM D-biotin added to the LB medium during expression)
notes: ViaA, E. coli K-12 MG1655, VWA domain protein, residues 1-483 (NTV 1-319, CTV/VWA domain 320-483), cloned in pET22b; Dimer by SEC-MALLS and SAXS; Theoretical MW of the construct is 60.4 kDa; also called AVI-ViaA-HIS; N-terminally AviTagged ViaA; source: E. coli BL21 (DE3), purified (NiNTA IMAC, desalting, SEC); not shown: AviTag, N-terminal, kept; His tag, C-terminal, kept

Tests used:
[1] = target: T1, C-terminally His-tagged RavA (E. coli, UniProt P31473 1-498); test: BLI; Supplementary Fig. 1: biotinylated His-NTV-AviTag or ViaA immobilised on streptavidin biosensors, RavA or RavAΔLARA in solution; HBS kinetics buffer, 293 K; the methods say 1 mM ADP was added with RavA or RavAΔLARA; details: both partners purified
T1 construct: RavA, MoxR AAA+ ATPase, E. coli K-12 MG1655; It cites earlier work for RavA being a hexamer with ADP or ATP and partly monomeric without nucleotide; also called apo-RavA; not shown: His tag, C-terminal, kept
T1 sequence (P31473 whole entry): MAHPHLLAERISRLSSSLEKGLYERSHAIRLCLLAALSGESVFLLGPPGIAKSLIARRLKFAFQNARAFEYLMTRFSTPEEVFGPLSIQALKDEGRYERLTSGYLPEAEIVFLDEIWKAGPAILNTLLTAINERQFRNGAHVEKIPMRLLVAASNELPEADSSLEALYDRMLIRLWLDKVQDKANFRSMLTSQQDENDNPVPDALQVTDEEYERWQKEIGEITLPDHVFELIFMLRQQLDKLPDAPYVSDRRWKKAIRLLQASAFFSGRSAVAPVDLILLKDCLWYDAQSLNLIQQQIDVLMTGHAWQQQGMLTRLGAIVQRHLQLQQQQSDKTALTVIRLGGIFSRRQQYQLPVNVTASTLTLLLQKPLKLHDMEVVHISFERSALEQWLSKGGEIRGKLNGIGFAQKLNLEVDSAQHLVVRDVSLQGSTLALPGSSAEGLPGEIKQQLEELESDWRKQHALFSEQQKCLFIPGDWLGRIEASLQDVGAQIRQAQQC

[2] = target: T1, C-terminally His-tagged RavA; test: BLI; biotinylated ViaA construct immobilised on streptavidin biosensors, RavA in solution with 1 mM ADP (pre-incubated 10 min); HBS kinetics buffer, 293 K; 1:1 model; details: both partners purified
[3] = target: T1, C-terminally His-tagged RavA; test: BLI; biotinylated ViaA construct immobilised on streptavidin biosensors, ligand in solution, no nucleotide added; HBS kinetics buffer (25 mM HEPES pH 7.5, 300 mM NaCl, 10 mM MgCl2, 10 % glycerol, 0.1% BSA, 0.02% Tween-20), 293 K, Octet RED96; 1:1 model; details: both partners purified
[4] = target: the molecule itself; test: SAXS; AviTag-ViaA-His at 3 mg/mL, 25 mM HEPES pH 7.5, 300 mM NaCl, 10 mM MgCl2, 10 % glycerol, 20 °C; MW by SAXSMoW and ScÅtter
[5] = target: the molecule itself; test: SEC-MALS; Superdex 200 increase 10/300 GL, 4 °C, 25 mM HEPES pH 7.5, 300 mM NaCl, 10 mM MgCl2, 10 % glycerol; AviTag-ViaA-His 80 µL at 3 mg/mL, His-NTV-AviTag 80 µL at 2 mg/mL

Row | Binder | binding result [1] | Kd [2] [µM] | Kd [3] [µM] | stoichiometry N [4] | stoichiometry N [5]
1 | B1 | binds | – | – | – | –
2 | B2 | – | ~2.2 | 11 | – | –
3 | B3 | – | ~2.2 | 18.9 | 2 | ~2

Source: paper PMC9489729, “The AAA+ ATPase RavA and its binding partner ViaA modulate E. coli aminoglycoside sensitivity through interaction with the inner membrane” (Nature Communications, 2022)
